# Laboratory results reported in the supplement of paper PMC12042874.
# ± gives the uncertainty stated by the source.
# Experiment: amyloid nucleation score (Sup35N fusion, yeast selection) (log enrichment); library NNK1; higher = more nucleation; inactive = no reads after selection
# Summary of the method: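 Sup35N fusions to peptides of 20 random codons were expressed in psi-negative yeast, induced 24 hours with 100 μM copper sulfate, and grown 7 days at 30°C on medium lacking adenine and uracil. Input and output plasmid inserts were sequenced by Illumina. The nucleation score is the DiMSum log enrichment of output over input reads, centred on the mode score of non-aggregating sequences. Sequences with under 100 input reads were excluded.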
row,Substance,amyloid nucleation score
1,CLFNQKGMFTSGCKVYLTLV,-0.152 ± 0.27
2,CLKFSIFDGE,0.127 ± 0.6
3,CLKWTVNIDGFIPDARLPRS,3.18 ± 0.18
4,CLLFNGNKLVCSHILMRKNG,0.443 ± 0.23
5,CLLIVRISNSKFVVPPTVFA,0.608 ± 0.49
6,CLLVLLLGLRLPYRPRLVFV,0.463 ± 0.79
7,CLNSHFGKNISNLFVCDLVC,0.484 ± 0.61
8,CLNVCSLFRSTYRFKRVREC,0.434 ± 0.37
9,CLQDMFFTNELSFAGTLLIS,0.049 ± 0.34
10,CLRDNSRRGRNVQSL,-1 ± 1.5
11,CLSCSNICFFIHSVNWDVFS,5.27 ± 0.11
12,CLSVLSCSVTSNYWLTS,7.984 ± 0.056
13,CLTGIGKLPVGSGPV,0.198 ± 0.77
14,CLTLPYYSIYAVGESRMFEW,0.003 ± 0.27
15,CLTMWIV,-0.285 ± 0.68
16,CLVELVYFCGLSVGQ,-0.17 ± 0.85
17,CLVVTETANI,-0.578 ± 0.69
18,CLWCDRTVASWAKVSASVRL,-0.073 ± 0.24
19,CMAVWEKIENGVHLLHRSAD,2.76 ± 0.12
20,CMDKCVCERHPYL,-0.345 ± 1.7
21,CMLSCFSDRAWIMQRSVCAC,0.879 ± 0.65
22,CMLVYCEVASVGVSFKLWWR,1.73 ± 0.39

row,Substance,amyloid nucleation score
1,CMSSLLFD,0.921 ± 0.49
2,CMWPFTDYTIIKTSLYTWTN,-1.09 ± 0.53
3,CNDFCCT,inactive
4,CNMVHVVIERDGSGRRGCGL,5.38 ± 0.055
5,CNMVLFRVKYY,2.67 ± 0.1
6,CPGLFVGLCPMAHMVACCHR,inactive
7,CPHALYKSLIIPGSMFYKVR,-1.04 ± 1.7
8,CPRHVALGHLNYLGQDFDLK,0.326 ± 1.2
9,CPSIILPFVYRNGSVTMVPF,0.927 ± 0.2
10,CPVRSRIVVRCLYFSHMRST,0.263 ± 1.1
11,CQLNTASVSNNGGRVLGMYR,0.529 ± 0.79
12,CRACRLRVIFNELMVGWVMF,inactive
13,CRAGY,-0.534 ± 0.64
14,CRDAILIEVGNYRHLVLGPV,0.677 ± 0.52
15,CREVAKFGKLSNRQSRGCAI,-0.951 ± 1.4
16,CRLFYSWNVNMYRNMLLRWI,-0.767 ± 0.33
17,CRLIVISTTYIIKAQKCLIG,-0.512 ± 0.33
18,CRLVVMVIVQLHGIDFELAL,0.951 ± 0.54
19,CRRIHFLVTMVTGSPLCLSG,-0.627 ± 0.32
20,CRSFYIIEIVKMGPNGRKGV,-1 ± 0.78
21,CSAFDVIN,-0.556 ± 1.4
22,CSAQTGVGSFPFGNIPVVSV,0.789 ± 0.56

row,Substance,amyloid nucleation score
1,CSAVS,0.241 ± 0.39
2,CSCVCETEGRLSSSCYHHMP,0.184 ± 0.38
3,CSDNV,1.01 ± 0.49
4,CSLILALPN,0.951 ± 0.6
5,CSLLSAPPVDSLWGTESRLI,-0.804 ± 0.73
6,CSNDLECFCDFNCRL,-0.033 ± 0.39
7,CSNEK,0.319 ± 0.97
8,CSNRWCLKTRVERVMERGSV,0.218 ± 0.54
9,CSQDYFIYYYPVLMLE,-0.112 ± 0.46
10,CSSKGCLVSESFLHLMTNLC,0.969 ± 0.42
11,CSSWVMGLIFWECLKNMDKV,-1.39 ± 1.3
12,CSTALLDEKLLFHGTYIMRD,1.08 ± 0.57
13,CSVGASAIGNM,0.717 ± 0.59
14,CSVTLVVRV,0.676 ± 0.63
15,CSYSLSRFVLIHDRIVNMVT,1.35 ± 0.4
16,CTTNIPAKLHLNSVVRVVRA,-1.27 ± 2.7
17,CVALGGLMAMLIASVIWENN,-0.354 ± 0.72
18,CVALGLLGRCVLLVAGGGWA,0.503 ± 0.54
19,CVANLPGSKVLVWNTKFK,5.38 ± 0.056
20,CVAWVSSNPRVGGDIRTWTE,0.021 ± 0.48
21,CVGRQLAGKAYLVLRWRECD,-0.372 ± 1.4
22,CVHAHTTHITSCRARPSTEA,0.435 ± 0.28

row,Substance,amyloid nucleation score
1,CVLPYCS,0.297 ± 0.54
2,CVNQWILVPGRAF,inactive
3,CVRRLRVLCTFLLVTLLYCI,1.67 ± 0.29
4,CVSEDDMLLDYDPVCKFVWW,2.62 ± 0.15
5,CVSLCVHKDMIVIAPGTLTQ,4.81 ± 0.064
6,CVTCFTLGSVRGKRTASACW,0.322 ± 0.18
7,CVWNYCAWFTVARNTTLFNN,-0.508 ± 0.89
8,CWGFYL,-0.976 ± 1.1
9,CWLMGMSGPPFDRVWGVVIR,-0.086 ± 1.2
10,CWYLYRFSNTMMNRTTLPCG,-0.169 ± 0.53
11,CYAGFCNQRLPHYLLKLQVL,-0.42 ± 1.7
12,CYCFET,-0.381 ± 0.71
13,CYCWPTTKKIPFKSL,-0.739 ± 1.9
14,CYTLFAVVNMLLVFNWQCRD,-0.34 ± 0.36
15,CYVSS,-0.548 ± 0.53
16,DAFAGF,0.054 ± 0.59
17,DAGGYLQEIARTPFTVARQQ,0.195 ± 0.35
18,DAPVTSSGSML,0.008 ± 0.23
19,DAQWAYYTRTYFWYVFSAVC,0.27 ± 0.23
20,DARLFDFYFANLVSSQGNCF,1.09 ± 0.56
21,DASSKIRPSIGRMQKHWY,-0.513 ± 0.85
